# Data as given in the DeepSol protein solubility set.
# Test: soluble on expression in E. coli; label from the status in PepcDB or PDB records
row,Sequence,soluble on expression in E. coli
1,SWMEEVIKLCGRELVRAQIAICGMSTWS,soluble
2,MGSDKIHHHHHHMETLYLKTLIVTAEKGSFSKAAAELCITQSAVSQRVKFLEERYGCELLDRSGPVMMLTAAGEAVVRKAQAILDIEKTLQDELKKFTGRQRLSICCTPSFGIAHMPKVLNRFMLRNADIVDLKFMFYSPEQAVKGLAEREFDIGIIEHCEDLDLADFHTATLPRDELVFVSAPSLGIPTPLVTIERLFEERLITRKDGCSSKKLLRLNLASIGKDLEGFRSTVVYDDLHLTVDTVLDGGGVAFVSSCLVNKYLENGQLKQHRVEGFCHSRQRTVALSRSKVQDRLVSDFLACLDTVFTDQCHRSSCPT,not soluble
3,GDYIYADSNNNGVYGDDNDYTFQKTSNKPKYNFGFQASAAWKGFDLSMVWAGAAGFSIYWGATTGYNAASTEWGSTIAQRVAENHYFYNPENPDDPRTNINAKYPRMAYIDGYVQNRHGNTTLWLYKGDYIKLKNLSLGYTLPKNWVSKIAMQNARVYVSAENLLTITGFEGQDPESATGMGYSPFRTIAIGANITF,not soluble
4,MILLIGATGNIGLPIVKSLQKKGAEVRLLVHNEKSSAKIQALGQMEIFIGDFRNDSDLRESMKGCSSVFHVVPPFTKDEAEIGYRVIENARHAGVEHIVFNSVLHPQLRKMEHHAQKLLVEEAVIESGLAFNIIQPAMLMQNLLMVWRTIRENGIYPVISSPDKKMSLIDSEDIGEAVANILTDPSLRNATFELAGSDLLTYKEMALIISEELNQPVKVVPVDDKGREELARKQGMSSYAIHAFLKMAKHYDEHGFSGSNPLVLTSILKRPPNSYRDFIRRLIAEDGGI,not soluble
5,MGSDKIHHHHHHMKILYIITGLPTGGAEMMLYKLLSQINQERFEPIVVSLMDRGTLGDRIEALGIPVHTIGMNRGGIPMPVDVWRLVHLVDRLQPDIIQGWMYHGNLAAQFASFLNGNKIPIVWSIHYSIDSLESDKKMTVAIIKFSAYISRLPKQVLFVSQNSKLQHEALGYSSKNSCIIPNGFDTISFSPSLTERVDVRSELSLPHESLLIGLICRYHPMKDHANFIQAAALFLKEHPNINFLMIGQGVDRDNPTLNKLIKELGIGDRISLLGERKDIPRLITSLDIFTSASAYGEAFPLVIGEAMSCGIPCVVTDVGDSGWIVGNTGKVIPPRNPQMLADAWKELIALGEEGRNILGKAARARITEDFALNSVVAKYELVYEKILSNMST,not soluble
6,GHMSESREARLIIFHAGSLSIPLSQVEEKFTKYAQEKLGVKVTFQDEASGSVKAVRKVTDLKKRADIVAVADYTLIPQLMIPNYTDFYVLFATNEIVIAFTNKSKYADEMLKNPDKWYEILSRPDVSFGFSDPNQDPCGYRSVMVMKLAELYYGRPIFKELVEKTTNIYSNGTRIYAPKEIIIKDKRVIMRPKETDLVGLVESGSLDYIFIYKSVAKQHHLSYITLPDDINLGDFNKADFYGRVSITLGSTGKTIKAKPIVYGITVLKNAPNRELAIEFLRFLLGNEGRKIFEDNYQEFLSPPVAFGNVPPEIRRLVEVK,soluble
7,MRNSLFTTLFFGLAALVMVLNAQYTSELEEDEKRGGARAMLHKRGGARAFSADVGDDYKRGGARAFYDEKRGGARAFLTEMKRGGARVFQGFEDEKRGGARAFMMDKRGGGRAFGDMMKRGGARAFVENSKRDEDWVIRPFEDDRLEKRGGGRSFPVKPGRLDD,not soluble
8,MSLDFVIEMLGIRKEFSGFVANDNITLQLKQGEIHALLGENGAGKSTLMNVLFGLYEPDGGEIRVRGTKENINSPNKANELGIGMVHQHFMLVDKFTVAENIILGKEPSKLGVIEKKKAIEEIKEISDRYGLRVDPNAVVRDISIGMQQRVEILKTLYRGADILIFDEPTAVLTPQEIKELIQIMRSLIKEGKSIILITHKLKEIMDVCDRVTVIRRGKGMGTVNVPETTPQDLANLMVGREVVFTTEKIDAKPGKDVLEVKDLVVKESRGVESVRGLNLTVRAGEIVGIAGVDGNGQSELISAIAGLSKVTSGSILLNGEHIENKKPRKITEAGLGHIPEDRHKHGLVLEMSLGENIALQTYYKKPISSKGFLNHKAMYDFARELIEEYDVRASSEYVAAKSLSGGNQQKAIIAREIHRNPDFLIAAQPTRGLDVGAIEFIHRRLIEQRDNGKAVLLMSFELDEIMNVSDRIAVIYEGKIVAIVDPKETTEQELGLMMAGSSKQEAEMGEKEGHHHHHH,not soluble
